According to the DeepSol protein solubility set:

Assay: soluble on expression in E. coli; label from the status in PepcDB or PDB records

Soluble on expression in E. coli, soluble:
MASKLLRAVILGPPGSGKGTVCQRIAQNFGLQHLSSGHFLRENIKASTEVGEMAKQYIEKSLLVPDHVITRLMMSELENRRGQHWLLDGFPRTLGQAEALDKICEVDLVISLNIPFETLKDRLSRRWIHPPSGRVYNLDFNPPHVHGIDDVTGEPLVQQEDDKPEAVAARPRQYKDVAKPVIELYKSRGVLHQFSGTETNKIWPYVYTLFSNKITPIQSKEAYLEHHHHHH
SLGGEVSGKGPAVAAREARDPLPDAGASPAPSRCCRRRSSVAFFAVCDGHGGREAAQFAREHFWGFIKKQKGFTSSEPAKVCAAIRKGFLACHLAMWKKLAEWPKTMTGLPSTSGTTASVVIIRGMKMYVAHVGDSGVVLGIQDDTKDDFVRAVEVTQDHKPELPKERERIEGLGGSVMNKSGVNRVVWKRPRLTHNGPVRRSTVIDQIPFLAVARALGDLWSYDFFSGEFVVSPEPDTSVHTLDPQKHKYIILGSDGLWNMIPPQDAISMCQDQEEKKYLMGEHGQSCAKMLVNRALGRWRQRMLRADNTSAIVICISPEVDNQGNFTNEDELYLNLTDGPSYNSQETCVMTPSPCSTPPVKSLEEDPWPRVNSKDHIPALVRSNAFSENFLEVSAEIARENVQGVVIPSKDPEPLEEN
MGHYRGTWLEIGRMPMLLTDGCVAGYSTYRQGKSADEVLVEDGCREGTPQGKLKTINGVGKIEDFASTKAKMRVRYPLLITFNYWVLYKSPDKSWFISANPSTEDVWVYARSVPSKAKLNRMMMKVRELGYDVKKLEFPLEHHHHHH
MQFSTVASIAAVAAVASAAANVTTATVSQESTTLVTITSCEDHVCSETVSPALVSTATVTVDDVITQYTTWCPLTTEAPKNGTSTAAPVTSTEAPKNTTSAAPTHSVTSYTGAAAKALPAAGALLAGAAALLL

Soluble on expression in E. coli, not soluble:
MPLLDIRHLTIEIDTPQGLVKAVDRMSLTMNEGEIRGLVGESGSGKSLVAKAIVGICKENWRVTADRMRLGNIDLLQLTPRERRRVIARDVAMIFQEPSTCLDPSEEVGRQLIESIPFRTFEGRWWERFTWRKKQAIALLHKVGIKDHKDIMSSYPYELTDGECQKVMIAMAIAAKPKLLIADEPTNDVDPITQSQILRLLSRMNQVNNTSILLIGHDLTTITQWADRITVMYCGQSVESAETAKIVAEPKHPYTAALLKAMPDFSDWIPHKQKLQSLPGSIPPLQHLPIGCRLGPRCPYAQRQCVEVPHSRWVKNHKFSCHFPLNMESPQ
MGSDKIHHHHHHMGNTINLSRFYKACNPSYTLNMGVMLDRQYYIDFANVRGCKIVEELQRTISRISPDEPTCQLFTGHIGCGKSTELQRLKTELETAGFHVVYFESSQDLDMADIDVSDILLSVARQVCVSLEAIGIKLKPGYFNNLFKEIGDFLQAPIELSGEAEFSLGIAKITAKTKDSTQLRNQLRQYLEPRTNNILQAINEEILEKAVEQLKRRGQKGLVVIVDNLDRVDMRPVASGRTQPEYLFIDRGEQLRRLKCHVVYTIPLALIFSSEYETLKNRLGGGIAPKVLPMVLVRQRDGSDYEPGMSLLRQLVLARAFPEVASQERQQLITELFEQTETLDRLCRVSGGHIRNLLGLLYSCLQRQDPPFSRDCLEAVIKDYRDDLLLAIDECQWELLFDVMQQQSVKGESDYQSLLRSMYLFEYRDPVGRWFGISPALAETEKVLAWRESK
MNDFYVTLPSSVKNAQFENTSSRYVTRLPQVLHLEKDEYSVAVTDIIYPYSFVNLGRPLNYWIHFKNREPINVTFPAAQYDDLPHVVNSLNGVQKPRMKRGAPLILENEQVKRPKSDEPLSERDVIINKIRELEAKAKKDEEERIAREKEEKNKQREKHLATHKKAEEFAKKVQTDKDEQREKHLDTHKKAEQNAQDNQKYHDEERKKHIETQKKAEENEEKRRAKEKADRDAHVARHKQAEALEKKKREQEEKQKNEDRERATQKERREHIERHRQAEARAKALEKEKHEQEEKQKKENLERAEKERHDHIERQRQAEARAKALEQEKQEEKQKNEDRERATQKERREHLERHRQAEARAKALEKEKHERLQQEAKDKEDERARDKARKDAKAREEAKSREDVKAEKVAIDPKQVVNIPGKVYASQEAKKIIEKVNELEKQERDKIVSKVRESEAIEKEAVRASSEYHDVALKIFQKPNDRNIYDELKLSFERIRSRIKVSHFENSSDYLQFGEKDGRVSIDFLDSNILFEEFEKSCAYFLGFHDTIVRESSLAPSKIDYFGNVSTIYLYCDIVDPIIVGDSKNSLLSVIPCKGKYGEMIHHTIPHPRYLPIMNSTIDSIKIELLSEFAEPINFNWGSTVIVLHFKKI
MGHHHHHHSHMQYMYFKAEPYAADEGSGEGHKWLMVHVDKRITLAAFKQHLEPFVGVLSSHFKVFRVYASNQEFESVRLNETLSSFSDDNKITIRLGRALKKGEYRVKVYQLLVNEQEPCKFLLDAVFAKGMTVRQSKGELIPQLREQCGLELSIDRFRLRKKTWKNPGTVFLDYHIYEEDINISSNWEVFLEVLDGVEKMKSMSQLAVLSRRWKPSEMKLDPFQEVVLESSSVDELREKLSEISGIPLDDIEFAKGRGTFPCDISVLDIHQDLDWNPKVSTLNVWPLYICDDGGVIFYRDKTEELMELTDEQRNELMKKESSRLQKTGHRVTYSPRKEKALKIYLDGAPNKDLTQD
RLSEIFNSPEFAESKSKLTLALGQDITGQPVVTDLGKAPHLLVAGTTGSGKSVGVNAMILSMLFKAAPEDVRMIMIDPKMLELSIYEGIPHLLAPVVTDMKLAANALNWCVNEMEKRYRLMSFMGVRNLAGFNQKIAEAAARGEKIGNPFSLTPDDPEPLEKLPFIVVVVDEFADLMMTAGKKIEELIARLAQKARAAGIHLILATQRPSV
MILCSEKEKCEGIKNSKDEGIIPRVLILSTLQGEPSREKAKIGIFGINPGPHLPFERLYYTDILKKHGLFTSEYSKSNAIKAFKEIHDTWVSEFIKNYRNYPFHYKYFANTLEFLKKAKTVLIYRRKYNSVWRISILLEHHHHHH
MLKSKKRLLNPDYLFVTQDESSFYLDSNRSKCWAIKGSKPIKFISGSKTKINIGGFYTENRDFYWYDLGIKKNTDSFLKSLIKLKKDIGRKIFLLLDRATWHKSKKAREFFQNNKYWLQILLFPPATPDRNPTEYCWKTTREELTSIKSFKNIKVLKEELDEFWEKHVFTHKMSHYLKWLEHHHHHH
MGSDKIHHHHHHMLISANFDGGNIEVINQDDINNVQLAIRPDEGGEFFQWFNFRLQGEVGQRYTLNIINAGQASYTKGWEDYQAAATYDRQQWFRLPTQYQDGKLTIEVELDCEMIQIAYFAPYSYERHQDLLSAVQVHPLVSLEHLGKTLDDRDMTLVKVGDEDEEKAKIWITARQHPGETMAEWLVEGLLNNLLDGDCPTAKALLDKANFYIVPNMNPDGGVRGHLRTNAKGVNLNREWQSPSLEKSPEVYHVVNRMKETGVDLYYDVHGDEGLPYVFLAGCEGVPGYNQKMADLQGDFVKALLMASADFQDEFGYDKDEPGQANLTVASNWVAQTFGCLSNTLEMPFKDNANMPDPMSGWSPERCIYLGEASLLAMLAVVDKLR
EHRYGHLLGQINWISLGGGIHFTEPGYALDAFCDRLRRFSEQYGVQVYLEPGEAAITNTATLEVTVLDVMRNEKNLAIVDAATEAHMLDLLIYRMSARVQPDQGPHRYVIYGNSCLAGDVFGEFSFESPLQPGSRISIQDAAGYTMVKKNWFNGVRMPAIAIRELDGEIRLVREFGYQD
MKRFRKNNLELELIRELSEIDFYNISAPLNSKEFWKEWQEKFNRANLTRIALRNILRNKRLSPKEYRKVKNSIKKYEDIINYLNALKLTALNARGSFGGYFIEFDEDEEENEGGT
MDLGIKGKKVIVTAASKGIGLAIAKRFLEEGAKVIISSNDESNLMKAYNKLKEIHSENVSYIKADLMNPHEVKSLVHEGYRKLGGLDVLAYVTGSPKPGNLFSLSDKDWMDAFNLLLLSAVVAVREAGQLMQSGGRIILSTSTTLRQPIDNLDLSNVVRLSLAGLIKVASRELGPKGILVNGVMPGWTKTERLLQIIRDRAIREGKSEDEVLKSIVADVPLGRAGEPEEIANVVLFLASNLSTYVTGALIPVDGGSIKGVF
